The text below walks through data of article PMC2794159.

In this series the target is MBD4 (methyl-CpG binding domain protein 4) (mouse, UniProt Q9Z2D7 1-554). Kind of series: EMSA.
Sequence of MBD4 (methyl-CpG binding domain protein 4) (Q9Z2D7 whole entry, the tested form may be a part): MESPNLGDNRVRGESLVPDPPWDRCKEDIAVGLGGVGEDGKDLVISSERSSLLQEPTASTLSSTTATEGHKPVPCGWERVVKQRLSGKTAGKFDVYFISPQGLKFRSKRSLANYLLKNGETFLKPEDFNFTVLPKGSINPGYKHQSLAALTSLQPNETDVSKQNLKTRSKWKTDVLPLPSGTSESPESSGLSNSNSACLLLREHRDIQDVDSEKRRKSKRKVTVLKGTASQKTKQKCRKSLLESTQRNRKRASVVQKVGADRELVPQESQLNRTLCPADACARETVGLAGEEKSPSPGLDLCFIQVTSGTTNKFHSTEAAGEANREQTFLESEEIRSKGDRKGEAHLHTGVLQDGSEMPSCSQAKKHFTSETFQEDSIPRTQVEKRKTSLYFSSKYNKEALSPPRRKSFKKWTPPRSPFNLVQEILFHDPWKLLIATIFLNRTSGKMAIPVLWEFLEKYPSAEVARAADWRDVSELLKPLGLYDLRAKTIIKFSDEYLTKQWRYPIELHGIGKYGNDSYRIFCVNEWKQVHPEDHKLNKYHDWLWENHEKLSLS

As to GGTCGGGGTAGCGGCTGAATCGCTGCACGCCGTAGGTCACGCG (ssDNA, m5C at position 21 (m5CpG); 3' cgcg phosphorothioate) [m5CpGGFP ssODN alone], the binding result is recorded as “no binding”.
